Measured values taken from patent US20100092465A1, “TREATMENT OF GRAFT-VERSUS-HOST DISEASE” (priority 2006, published 2010).
Several values for one entry are separate records, joined by “and”; a condition that tells them apart may be missing. Equal entries are not always repeated.

What was measured:
mouse IL-27 = biological target: T1, mouse IL-27 (Mus musculus, UniProt O35228+Q8K3I6); assay: IL-27 inhibition of IL-2 production neutralized by IL-27RA Fc; type: cell-based
T1 sequence (O35228+Q8K3I6 with tags, fused parts or gaps): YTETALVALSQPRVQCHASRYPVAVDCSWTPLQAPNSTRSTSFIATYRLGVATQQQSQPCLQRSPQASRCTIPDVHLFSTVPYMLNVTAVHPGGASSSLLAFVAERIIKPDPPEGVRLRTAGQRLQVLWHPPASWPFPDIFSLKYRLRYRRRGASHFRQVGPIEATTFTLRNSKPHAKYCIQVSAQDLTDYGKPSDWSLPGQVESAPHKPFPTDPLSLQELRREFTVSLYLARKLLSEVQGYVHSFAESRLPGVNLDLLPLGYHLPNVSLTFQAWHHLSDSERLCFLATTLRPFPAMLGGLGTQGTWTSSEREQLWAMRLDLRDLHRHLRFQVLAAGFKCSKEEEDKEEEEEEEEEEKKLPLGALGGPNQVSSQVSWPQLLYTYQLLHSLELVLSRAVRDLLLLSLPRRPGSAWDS
Method: For testing of the soluble receptor, single-chain mouse IL-27 (10 ng/ml) was preincubated for 30 minutes at 37 degrees C. with either IL27RAm(mFc1) (10.0 and 5.0 .micro.g/ml), IL27RA-Fc5, mouse Fc1 protein (10.0 and 5.0 .micro.g/ml), human Fc5 protein (10.0 and 5.0 .micro.g/ml), or no recombinant protein in wells of the anti-CD3 coated plates. 4×10^5 CD4^+ CD62L high cells were added to the wells. Duplicate plates were set up for all experimental conditions. The plates were then cultured at 37 degrees for up to 72 hours. Cell supernatants were collected from one set of plates at 48 hours and from the duplicate set of plates at 72 hours. The supernatants were stored frozen at −80° C.

[1] = biological target: T2, mouse ligand (single-chain IL27) (Mus musculus, UniProt O35228+Q8K3I6); assay: SPR kinetics of soluble receptors with mouse IL27 ligand; settings: binding with mouse ligand; gp130 not included
T2 construct: amino-terminal peptide tag (FLAG in lot A1426F) (N)
T2 sequence (O35228+Q8K3I6 with tags, fused parts or gaps): T1 sequence (O35228+Q8K3I6 with tags, fused parts or gaps)
Method: Kinetic rate and affinity constant values for the mouse (IL27RAm(mFc1), Example 3) and human (IL27RA-Fc5, Example 4) soluble receptors were obtained by surface plasmon resonance (SPR) using an automated instrument (BIACORE 3000; Biacore International AB, Uppsala, Sweden). The mouse soluble receptor was tested against mouse ligand (lot A1418F), and the human soluble receptor was tested against both mouse (A1426F) and human (A1534F) ligands. For determination of the kinetic rate constants for the receptor-ligand interactions, the gp130 molecule was not included as part of the receptor complex.
The IL27 ligands used in this study were single-chain molecules comprising EBI3 connected by its C-terminus to the N-terminus of IL-27 p28 via a polypeptide linker. Each of the ligands included an amino-terminal peptide tag.
For the mouse IL27RA study, the soluble receptor was captured onto the chip surface by an isotype-specific anti-mouse Fc antibody (obtained from Jackson ImmunoResearch Laboratories, Inc., West Grove, Pa.) covalently immobilized to the chip (BIACORE CM5 chip) using the standard amine coupling protocol specified by the instrument manufacturer. […]
All data were assessed using software provided with the instrument (BIACORE Evaluation software v. 3.2). […]

muIL-27 [2] = biological target: T3, muIL-27 (Mus musculus, UniProt O35228+Q8K3I6); assay: Phospho-STAT3 neutralization assay, total human PBMCs, muIL-27; type: cell-based; settings: ligand muIL-27 at EC90
T3 sequence (O35228 19-228): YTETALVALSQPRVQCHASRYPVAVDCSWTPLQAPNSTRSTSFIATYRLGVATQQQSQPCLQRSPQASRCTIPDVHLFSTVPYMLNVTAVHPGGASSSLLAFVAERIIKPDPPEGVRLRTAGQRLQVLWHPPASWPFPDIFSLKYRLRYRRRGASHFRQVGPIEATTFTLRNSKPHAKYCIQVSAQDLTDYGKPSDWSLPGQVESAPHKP
T3 sequence (Q8K3I6 29-234): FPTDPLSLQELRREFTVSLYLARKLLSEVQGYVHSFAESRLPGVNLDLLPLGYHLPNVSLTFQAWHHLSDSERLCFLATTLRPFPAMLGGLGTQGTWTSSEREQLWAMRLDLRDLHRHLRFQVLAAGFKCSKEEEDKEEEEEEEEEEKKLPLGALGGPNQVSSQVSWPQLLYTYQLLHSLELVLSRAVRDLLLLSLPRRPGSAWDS
From the text: (§1) Whole mouse spleens were harvested from C57 B1/6 mice and washed two times with 1×PBS before being plated out at 2×10^5 cells/well in assay media (RPMI 1640 plus 10% fetal bovine serum) in 96-well, round-bottom tissue culture plates. Total human PBMC (peripheral blood mononuclear cells) were thawed from a frozen vial collected from a leukapherisis donation and washed two times with 1×PBS before being plated out at 10^6 cells/well in assay media in 96-well, round-bottom tissue culture plates. […] Following pre-incubation, treatments were added to the plates containing the cells and incubated together at 37° C. for 15 minutes.
(§2) Following incubation, cells were washed with ice-cold wash buffer (BIO-PLEX Cell Lysis Kit, BIO-RAD Laboratories, Hercules, Calif.) and put on ice to stop the reaction according to manufacturer's instructions. […]
(§3) Capture beads (BIO-PLEX Phospho-Stat3 Assay, BIO-RAD Laboratories) were combined with 50 μL of 1:1 diluted lysates and added to a 96-well filter plate according to manufacture's instructions (BIO-PLEX Phosphoprotein Detection Kit, BIO-RAD Laboratories). […] After the final wash, beads were resuspended in 125 μL/well of bead suspension buffer, shaken for 30 seconds, and read on an array reader (BIO-PLEX, BIO-RAD Laboratories) according to the manufacture's instructions. Data were analyzed using analytical softward (BIO-PLEX MANAGER 3.0, BIO-RAD Laboratories). […]

huIL-27 [3] = biological target: T4, huIL-27 (Homo sapiens, UniProt Q14213+Q8NEV9); assay: Phospho-STAT3 neutralization assay, total human PBMCs, huIL-27; type: cell-based; settings: Total Human PBMCs; ligand huIL-27 at EC90
T4 sequence (Q14213 21-229): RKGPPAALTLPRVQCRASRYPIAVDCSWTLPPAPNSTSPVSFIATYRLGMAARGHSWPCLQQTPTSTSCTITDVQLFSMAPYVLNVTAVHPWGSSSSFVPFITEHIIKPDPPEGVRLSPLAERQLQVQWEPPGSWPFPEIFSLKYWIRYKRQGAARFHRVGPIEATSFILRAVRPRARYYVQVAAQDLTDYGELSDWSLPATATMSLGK
T4 sequence (Q8NEV9 29-243): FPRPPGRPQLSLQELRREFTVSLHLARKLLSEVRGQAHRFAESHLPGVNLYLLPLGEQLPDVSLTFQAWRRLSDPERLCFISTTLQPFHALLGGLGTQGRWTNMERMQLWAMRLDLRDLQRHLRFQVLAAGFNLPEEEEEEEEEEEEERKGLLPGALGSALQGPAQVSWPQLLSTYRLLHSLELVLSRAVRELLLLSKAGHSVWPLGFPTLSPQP
From the text: as §1, §2, §3

muIL-27 [4] = biological target: T3, muIL-27; assay: Phospho-STAT3 neutralization assay, mouse spleens, muIL-27; type: cell-based; settings: ligand muIL-27 at EC90
From the text: as §1, §2, §3

[5] = Pharmacokinetics of soluble receptors in female C57B1/6 mice; type: in vivo, mouse; settings: for clearance from the circulation, comparison in words: mouse Fc1 fusion versus human Fc5 fusion
Method: Studies were performed to evaluate the pharmacokinetics of the mouse (IL-27RAm(mFc1)) and human (IL-27RA-Fc5) soluble receptors in female C57B1/6 mice.
Serum was generated from each sample and analyzed by a qualified enzyme-linked immunosorbant assay (ELISA). The resulting mean serum concentration versus time profiles were then subjected to noncompartmental pharmacokinetic analyses. The following pharmacokinetic parameters were calculated: C0 and Cmax (extrapolated concentration at time zero and maximum serum concentration, respectively), Tmax (time to achieve maximum concentration), t1/2 λz (terminal half-life), AUC0-t (area under the concentration versus time curve from time zero to the last measurable time point), AUCINF (area under the concentration versus time curve extrapolated to infinity), Cl or Cl/F (clearance or clearance divided by bioavailable fraction, respectively), VSS or VZ/F (steady state volume of distribution or volume of distribution divided by the bioavailable fraction, respectively), and F (bioavailable fraction).

huIL-27 [6] = biological target: T4, huIL-27; assay: Phospho-STAT3 neutralization assay, mouse spleens, huIL-27; type: cell-based; settings: Mouse Spleens; ligand huIL-27 at EC90
From the text: as §1, §2, §3

B1: IL-27RAm(mFc1): fusion protein comprising the extracellular domain of mouse IL27RA and a wild type BALB/c mouse gamma2a constant region Fc tag (protein)
chain: TRPHGSPGPLQCYSVGPLGILNCSWEPLGDLETPPVLYHQSQKYHPNRVWEVKVPSKQSWVTIPREQFTMADKLLIWGTQKGRPLWSSVSVNLETQMKPDTPQIFSQVDISEEATLEATVQWAPPVWPPQKVLICQFRYKECQAETWTRLEPQLKTDGLTPVEMQNLEPGTCYQVSGRCQVENGYPWGEWSSPLSFQTPFLDPEDVWVSGTVCETSGKRAALLVWKDPRPCVQVTYTVWFGAGDITTTQEEVPCCKSPVPAWMEWAVVSPGNSTSWVPPTNLSLVCLAPESAPCDVGVSSADGSPGIKVTWKQGTRKPLEYVVDWAQDGDSLDKLNWTRLPPGNLSTLLPGEFKGGVPYRITVTAVYSGGLAAAPSVWGFREELVPLAGPAVWRLPDDPPGTPVVAWGEVPRHQLRGQATHYTFCIQSRGLSTVCRNVSSQTQTATLPNLHLGSFKLWVTVSTVAGQGPPGPNLSLHLPDNRIRWK
For B1, the IL-2 concentration (mouse IL-27; 48 hr, protein conc. 5 (µg/ml; Fc controls in molar equiv.) + IL-27 10 ng/ml) was 4021.15 pg/mL, the IL-2 concentration (mouse IL-27; 48 hr, protein conc. 10 (µg/ml; Fc controls in molar equiv.) + IL-27 10 ng/ml, listed as mIL-27RA) was 5215.59 pg/mL and 4922.26 pg/mL and the IL-2 concentration (mouse IL-27; 72 hr, protein conc. 5 (µg/ml; Fc controls in molar equiv.) + IL-27 10 ng/ml) was 5744.95 pg/mL. For the same molecule, the IL-2 concentration (mouse IL-27; 72 hr, protein conc. 10 (µg/ml; Fc controls in molar equiv.) + IL-27 10 ng/ml, listed as mIL-27RA) was 6704.62 pg/mL and 12186.7 pg/mL, the “inhibition (partial block) of the ability of mouse IL-27 to inhibit IL-2 production” value (mouse IL-27; naïve CD4 T cells) was about 50% and the ka [1] was 1e+07 M⁻¹ s⁻¹. For the same molecule, the kd [1] was 0.0012 s⁻¹, the IC50 (muIL-27 [2]) was 4.83 nM and the IC50 (huIL-27 [3]) was 1370 nM. It also gave an IC50 (muIL-27 [4]) of 0.18 nM, an AUC0-24 ([5]; IP, 100 μg) of 98.2 µg·h/mL and an AUCINF ([5]; IP, 100 μg) of 102 µg·h/mL. For the same molecule, the Cl/F ([5]; IP, 100 μg) was 0.983 mL/h, the Tmax ([5]; IP, 100 μg) was 1 h and the “t1/2 λz” value ([5]; IP, 100 μg) was 5.17 h. For the same molecule, the Cmax ([5]; IP, 100 μg, serum) was 13200 ng/mL, the AUC0-24 ([5]; IV, 100 μg) was 157 µg·h/mL and the AUCINF ([5]; IV, 100 μg) was 162 µg·h/mL. The Cl ([5]; IV, 100 μg) was 0.618 mL/h, the Vss ([5]; IV, 100 μg) was 3.05 mL and the “t1/2 λz” value ([5]; IV, 100 μg) was 5.25 h. The Co ([5]; IV, 100 μg, serum) was 36.2 µg/mL, the AUC0-24 ([5]; SC, 100 μg) was 56.5 µg·h/mL and the Tmax ([5]; SC, 100 μg) was 3 h. For the same molecule, the Cmax ([5]; SC, 100 μg, serum) was 7950 ng/mL, the “clearance from the circulation, comparison in words” value [5] was “more rapid clearance” and the “clearance from the circulation, comparison in words” value ([5]; listed as Zcytor1 fragment polypeptide joined to a wild-type murine immunoglobulin gamma2a) was “rapidly cleared from the circulation”. It also gave an IC50 (huIL-27 [6]) of 9.3 nM.
